These are literature values, as cited in PMC10330345.

The term Kd denotes the constant that tells how readily two partners part at equilibrium.

The data set has as its target BTN3A1 272-513 (Homo sapiens) (UniProt O00481). In words: ITC.

BTN3A1 272-513 (Homo sapiens), sequence (O00481 272-513): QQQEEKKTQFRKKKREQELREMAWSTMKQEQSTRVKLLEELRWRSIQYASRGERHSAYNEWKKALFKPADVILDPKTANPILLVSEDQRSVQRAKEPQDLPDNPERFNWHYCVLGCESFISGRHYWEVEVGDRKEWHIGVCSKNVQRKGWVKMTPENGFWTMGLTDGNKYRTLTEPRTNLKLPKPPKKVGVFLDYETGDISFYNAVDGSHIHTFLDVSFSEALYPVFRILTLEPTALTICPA

For the substance BTN2A1 271-527 (from UniProt Q7KYR7), the Kd is 890 nM.
